{
  "source": "paper PMC9352680",
  "about": "“A comprehensive thermodynamic model for RNA binding by the Saccharomyces cerevisiae Pumilio protein PUF4”",
  "binders": {"B1": {"name": "Ic_S2_P5E.1_K5.1_C5.1_H5.1_A5.1_[T6C]_F5.1_[T9A]_T5.1 (ssRNA)", "RNA": "UUUGAUUAAUAUGAUAUCGUUCUUUCUUGUAUCAUAAUUCUUUCUCGAUAUCAUAUUAAUCUUU"}, "B2": {"name": "Ib_S2_P5E.1_K5.1_C5.1_H5.1_A5.1_[T5A]_F5.1_[T9A]_T5.1 (ssRNA)", "RNA": "B1 RNA with U32A, C33U"}, "B3": {"name": "Ib_S2_P5E.1_K5.1_C5.1_H5.1_A5.1_[A7T]_F5.1_[T8C]_T5.1 (ssRNA)", "RNA": "B1 RNA with C33U, A34U, U35C, A36U"}, "B4": {"name": "Ib_S2_P5E.1_K5.1_C5.1_H5.1_[T1A]_A5.1_F5.1_[T9C]_T5.1 (ssRNA)", "RNA": "B1 RNA with U28A, C33U, A36C"}, "B5": {"name": "Ib_S2_P5E.1_K5.1_C5.1_H5.1_A5.1_[T5C]_F5.1_[A10T]_T5.1 (ssRNA)", "RNA": "B1 RNA with U32C, C33U, A36U, A37U"}, "B6": {"name": "Ib_S2_P5E.1_K5.1_C5.1_H5.1_A5.1_[T5G]_F5.1_[A10C]_T5.1 (ssRNA)", "RNA": "B1 RNA with U32G, C33U, A36U, A37C"}, "B7": {"name": "Ib_S2_P5E.1_K5.1_C5.1_H5.1_A5.1_[T5C]_F5.1_[T8A]_T5.1 (ssRNA)", "RNA": "B1 RNA with U32C, C33U, U35A, A36U"}, "B8": {"name": "Ib_S2_P5E.1_K5.1_C5.1_H5.1_A5.1_[T5C]_F5.1_[A10C]_T5.1 (ssRNA)", "RNA": "B1 RNA with U32C, C33U, A36U, A37C"}, "B9": {"name": "Ib_S2_P5E.1_K5.1_C5.1_H5.1_A5.1_[T6A]_F5.1_[T8C]_T5.1 (ssRNA)", "RNA": "B1 RNA with C33A, U35C, A36U"}, "B10": {"name": "Ib_S2_P5E.1_K5.1_C5.1_H5.1_A5.1_[T6A]_F5.1_[A10C]_T5.1 (ssRNA)", "RNA": "B1 RNA with C33A, A36U, A37C"}, "B11": {"name": "Ib_S2_P5E.1_K5.1_C5.1_H5.1_A5.1_[T6A]_F5.1_[T8A]_T5.1 (ssRNA)", "RNA": "B1 RNA with C33A, U35A, A36U"}, "B12": {"name": "Ib_S2_P5E.1_K5.1_C5.1_H5.1_A5.1_[T5G]_F5.1_[T9C]_T5.1 (ssRNA)", "RNA": "B1 RNA with U32G, C33U, A36C"}, "B13": {"name": "Ia_S2_P5E.1_K5.1_C5.1_H5.1_A5.1_F5.1_[A10G]_T5.1 (ssRNA)", "RNA": "B1 RNA with C33U, A36U, A37G"}, "B14": {"name": "Ib_S2_P5E.1_K5.1_C5.1_H5.1_A5.1_[T5G]_F5.1_[A10G]_T5.1 (ssRNA)", "RNA": "B1 RNA with U32G, C33U, A36U, A37G"}, "B15": {"name": "Ib_S2_P5E.1_K5.1_C5.1_H5.1_[G2C]_A5.1_F5.1_[T9A]_T5.1 (ssRNA)", "RNA": "B1 RNA with G29C, C33U"}, "B16": {"name": "Ib_S2_P5E.1_K5.1_C5.1_H5.1_[G2C]_A5.1_F5.1_[A10G]_T5.1 (ssRNA)", "RNA": "B1 RNA with G29C, C33U, A36U, A37G"}, "B17": {"name": "Ib_S2_P5E.1_K5.1_C5.1_H5.1_[G2A]_A5.1_F5.1_[A10G]_T5.1 (ssRNA)", "RNA": "B1 RNA with G29A, C33U, A36U, A37G"}, "B18": {"name": "Ib_S2_P5E.1_K5.1_C5.1_H5.1_[T1C]_A5.1_F5.1_[A10G]_T5.1 (ssRNA)", "RNA": "B1 RNA with U28C, C33U, A36U, A37G"}, "B19": {"name": "Ib_S2_P5E.1_K5.1_C5.1_H5.1_[A4T]_A5.1_F5.1_[T8A]_T5.1 (ssRNA)", "RNA": "B1 RNA with A31U, C33U, U35A, A36U"}, "B20": {"name": "Ib_S2_P5E.1_K5.1_C5.1_H5.1_A5.1_[T6C]_F5.1_[A10T]_T5.1 (ssRNA)", "RNA": "B1 RNA with A36U, A37U"}, "B21": {"name": "Ib_S2_P5E.1_K5.1_C5.1_H5.1_[A4G]_A5.1_F5.1_[A10C]_T5.1 (ssRNA)", "RNA": "B1 RNA with A31G, C33U, A36U, A37C"}, "B22": {"name": "Ib_S2_P5E.1_K5.1_C5.1_H5.1_A5.1_[A7C]_F5.1_[T8A]_T5.1 (ssRNA)", "RNA": "B1 RNA with C33U, A34C, U35A, A36U"}, "B23": {"name": "Ib_S2_P5E.1_K5.1_C5.1_H5.1_[T1C]_A5.1_F5.1_[A10C]_T5.1 (ssRNA)", "RNA": "B1 RNA with U28C, C33U, A36U, A37C"}, "B24": {"name": "Ib_S2_P5E.1_K5.1_C5.1_H5.1_A5.1_[A7G]_F5.1_[T9A]_T5.1 (ssRNA)", "RNA": "B1 RNA with C33U, A34G"}, "B25": {"name": "Ib_S2_P5E.1_K5.1_C5.1_H5.1_[G2A]_A5.1_F5.1_[A10T]_T5.1 (ssRNA)", "RNA": "B1 RNA with G29A, C33U, A36U, A37U"}, "B26": {"name": "Ib_S2_P5E.1_K5.1_C5.1_H5.1_A5.1_[T6A]_F5.1_[A10T]_T5.1 (ssRNA)", "RNA": "B1 RNA with C33A, A36U, A37U"}, "B27": {"name": "Ib_S2_P5E.1_K5.1_C5.1_H5.1_[T1A]_A5.1_F5.1_[A10C]_T5.1 (ssRNA)", "RNA": "B1 RNA with U28A, C33U, A36U, A37C"}, "B28": {"name": "Ic_S2_P5E.1_K5.1_C5.1_H5.1_A5.1_[T6A]_F5.1_[T9C]_T5.1 (ssRNA)", "RNA": "B1 RNA with C33A, A36C"}, "B29": {"name": "Ib_S2_P5E.1_K5.1_C5.1_H5.1_A5.1_[T5A]_F5.1_[T8C]_T5.1 (ssRNA)", "RNA": "B1 RNA with U32A, C33U, U35C, A36U"}},
  "note": "Substitutions are numbered along the chain they refer to. Numbers in names are those of the source.",
  "data": [
    {"biological_target": "T1, PUF4 RNA-binding domain (Saccharomyces cerevisiae, UniProt P25339 537-888)", "T1 sequence": "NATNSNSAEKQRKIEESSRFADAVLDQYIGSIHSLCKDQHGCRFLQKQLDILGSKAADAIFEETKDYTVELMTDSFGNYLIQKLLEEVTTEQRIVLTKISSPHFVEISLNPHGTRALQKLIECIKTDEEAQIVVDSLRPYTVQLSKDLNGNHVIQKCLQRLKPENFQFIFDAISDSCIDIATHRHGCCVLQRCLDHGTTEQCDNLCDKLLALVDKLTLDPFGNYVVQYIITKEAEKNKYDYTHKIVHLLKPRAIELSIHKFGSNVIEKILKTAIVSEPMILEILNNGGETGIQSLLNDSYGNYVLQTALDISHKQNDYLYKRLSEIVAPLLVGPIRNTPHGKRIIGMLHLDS", "assay": "Mg; RNA-MaP; 20 mM Na-HEPES pH 7.4, 30 mM KOAc, 0.75 mM MgCl2, 0.1% Tween-20, 5% glycerol, 0.1 mg/mL BSA, 2 mM DTT; 25 C; 0.0125-409.6 nM protein", "settings": "tags: N-His6-TEV cleaved; C-SNAP kept, Cy3B-labelled; label: tethered on chip by stalled RNA polymerase", "units": {"Kd": "nM"}, "values": [
      {"binder": "B1", "Kd": 0.834},
      {"binder": "B2", "Kd": 2.52},
      {"binder": "B3", "Kd": 3.48},
      {"binder": "B4", "Kd": "> 2300"},
      {"binder": "B5", "Kd": 3.1},
      {"binder": "B6", "Kd": 61.5},
      {"binder": "B7", "Kd": 4.42},
      {"binder": "B8", "Kd": 4.69},
      {"binder": "B9", "Kd": 5.31},
      {"binder": "B10", "Kd": 6.16},
      {"binder": "B11", "Kd": 5.15},
      {"binder": "B12", "Kd": 104},
      {"binder": "B13", "Kd": 7.81},
      {"binder": "B14", "Kd": 84.5},
      {"binder": "B15", "Kd": 1690},
      {"binder": "B16", "Kd": "> 2300"},
      {"binder": "B17", "Kd": 420},
      {"binder": "B18", "Kd": 1750},
      {"binder": "B19", "Kd": 27.9},
      {"binder": "B20", "Kd": 4.73},
      {"binder": "B21", "Kd": 106},
      {"binder": "B22", "Kd": 8.24},
      {"binder": "B23", "Kd": 2010},
      {"binder": "B24", "Kd": 10.6},
      {"binder": "B25", "Kd": 137},
      {"binder": "B26", "Kd": 6.98},
      {"binder": "B27", "Kd": "> 2300"},
      {"binder": "B28", "Kd": 34},
      {"binder": "B29", "Kd": 7.72}
    ]}
  ]
}
